Reference: US20030236190A1 (published 2003)
Positions of bridges follow the written chain, without caps; N, C: chain ends. No end group written: not given here.

These binders were tested against T1, Soluble IGF-1R (R&D Systems, Cat. # 391-GR/CF); recombinant human IGF-1R (human, UniProt P08069 31-935) (assay: phage ELISA, vs IR).
T1 construct: extracellular domain; Eu3+-labelled in the TR-FRET assays; also called sIGF-1R; rhIGF-1R

Q: For DRDFCRFYERLTALVGGQVDGGWPC (disulfide 5-25 (inferred)) [20C-3-F6-IGFR], which “IGF-1R/IR Comparison” value is on record?
A: 14.1 ratio

Q: QPDHSYFYSLLQELVGSEERL [20E2B-4-F9-IGFR] was tested. Which “IGF-1R/IR Comparison” value did it give?
A: 7.7 ratio

Q: Which “IGF-1R/IR Comparison” value does the source give for PDLHKGFYAQLAQLIRGQLLS [20E2H-3-E3-IGFR] here?
A: 13.1 ratio

Q: For QFYGCLLDLSLGVPSFGWRRRCITA (disulfide 5-22 (inferred)) [20C-3-A4-IGFR], which “IGF-1R/IR Comparison” value is on record?
A: 7.6 ratio

Q: Which “IGF-1R/IR Comparison” value does the source give for LGVTDGFYAALGYLIHGVGQF [20E2B-3-D11-IGFR] here?
A: 7.6 ratio

Q: With QPAPDGFYSALMKLIGRGGVS [20E2B-3-C8-IGFR] as the binder, how does the “IGF-1R/IR Comparison” value read?
A: 8.9 ratio

Q: Which “IGF-1R/IR Comparison” value does the source give for VATSQGFYSGLSELLQGGGNV [20E2H-3-E12-IGFR] here?
A: 7.3 ratio

Q: For RQGTGSFYLMLEQLLVGARGP [20E2B-4-G11-IGFR], which “IGF-1R/IR Comparison” value is on record?
A: 7 ratio

Q: For VEGRGLFYDLLRQLLARRQNG [20E2B-3-C6-IGFR], which “IGF-1R/IR Comparison” value is on record?
A: 14.8 ratio

Q: For FFYRCLSRLLGGQLGSRLGLSCIGD (disulfide 5-22 (inferred)) [20C-3-E4-IGFR], which “IGF-1R/IR Comparison” value is on record?
A: 6 ratio

Q: For NSRDGGFYLQLERLLGFPVTG [20E2B-3-D4-IGFR], which “IGF-1R/IR Comparison” value is on record?
A: 9.6 ratio

Q: Which “IGF-1R/IR Comparison” value does the source give for LQPCSGFYECIERLIGVKLSG (disulfide 4-10 (inferred)) [20E2Bβ-4-G7-IR] here?
A: 15.8 ratio

Q: Which “IGF-1R/IR Comparison” value does the source give for RGQSDAFYSGLWALIGLSDG [R20β-4-A6-IR] here?
A: 17.3 ratio

Q: How did the “IGF-1R/IR Comparison” value turn out when LSSDGQFYRALNLLLQGSAGR [20E2B-2-B7-IGFR] was run?
A: 6.7 ratio

Q: KLHNLMFYYGLQRLVWGAGLG [20E2B-4-H3-IGFR] was tested. Which “IGF-1R/IR Comparison” value did it give?
A: 13.9 ratio

Q: For RGMKEEVLVGGSTDPFYHKLSELLQGS [B6Hα-3-F11-IR], which “IGF-1R/IR Comparison” value is on record?
A: 11.7 ratio

Q: With IQQELTFYDLLHRLVRSELGS [20E2B-3-D2-IGFR] as the binder, how does the “IGF-1R/IR Comparison” value read?
A: 11.7 ratio

Q: Which “IGF-1R/IR Comparison” value does the source give for PGTDLGFYQALRCVVIQGACD (not fully specified (bridges); cysteine pairing not given here) [20E2B-2-22-IGFR] here?
A: 8.1 ratio

These binders were tested against T2, Insulin receptor prepared according to Bass et al., 1996: soluble human insulin receptor-immunoglobulin heavy … (human, UniProt P06213 28-956) (assay: phage ELISA, vs IGF-1R).
T2 construct: extracellular domain; Eu3+-labelled in TR-FRET; also called IR; sIR-Fc; not shown: immunoglobulin heavy chain constant domains that replace the transmembrane and i

Q: DRDFCRFYERLTALVGGQVDGGWPC (disulfide 5-25 (inferred)) [20C-3-F6-IGFR] was tested. Which “IR/IGF-1R Comparison” value did it give?
A: 0.1 ratio

Q: QPDHSYFYSLLQELVGSEERL [20E2B-4-F9-IGFR] was tested. Which “IR/IGF-1R Comparison” value did it give?
A: 0.1 ratio

Q: For PDLHKGFYAQLAQLIRGQLLS [20E2H-3-E3-IGFR], which “IR/IGF-1R Comparison” value is on record?
A: 0.1 ratio

Q: With QFYGCLLDLSLGVPSFGWRRRCITA (disulfide 5-22 (inferred)) [20C-3-A4-IGFR] as the binder, how does the “IR/IGF-1R Comparison” value read?
A: 0.1 ratio

Q: With LGVTDGFYAALGYLIHGVGQF [20E2B-3-D11-IGFR] as the binder, how does the “IR/IGF-1R Comparison” value read?
A: 0.1 ratio

Q: For QPAPDGFYSALMKLIGRGGVS [20E2B-3-C8-IGFR], which “IR/IGF-1R Comparison” value is on record?
A: 0.1 ratio

Q: With VATSQGFYSGLSELLQGGGNV [20E2H-3-E12-IGFR] as the binder, how does the “IR/IGF-1R Comparison” value read?
A: 0.1 ratio

Q: For RQGTGSFYLMLEQLLVGARGP [20E2B-4-G11-IGFR], which “IR/IGF-1R Comparison” value is on record?
A: 0.1 ratio

Q: With VEGRGLFYDLLRQLLARRQNG [20E2B-3-C6-IGFR] as the binder, how does the “IR/IGF-1R Comparison” value read?
A: 0.1 ratio

Q: FFYRCLSRLLGGQLGSRLGLSCIGD (disulfide 5-22 (inferred)) [20C-3-E4-IGFR] was tested. Which “IR/IGF-1R Comparison” value did it give?
A: 0.2 ratio

Q: NSRDGGFYLQLERLLGFPVTG [20E2B-3-D4-IGFR] was tested. Which “IR/IGF-1R Comparison” value did it give?
A: 0.1 ratio

Q: Which “IR/IGF-1R Comparison” value does the source give for LQPCSGFYECIERLIGVKLSG (disulfide 4-10 (inferred)) [20E2Bβ-4-G7-IR] here?
A: 0.1 ratio

Q: Which “IR/IGF-1R Comparison” value does the source give for RGQSDAFYSGLWALIGLSDG [R20β-4-A6-IR] here?
A: 0.1 ratio

Q: LSSDGQFYRALNLLLQGSAGR [20E2B-2-B7-IGFR] was tested. Which “IR/IGF-1R Comparison” value did it give?
A: 0.1 ratio

Q: With KLHNLMFYYGLQRLVWGAGLG [20E2B-4-H3-IGFR] as the binder, how does the “IR/IGF-1R Comparison” value read?
A: 0.1 ratio

Q: Which “IR/IGF-1R Comparison” value does the source give for RGMKEEVLVGGSTDPFYHKLSELLQGS [B6Hα-3-F11-IR] here?
A: 0.1 ratio

Q: How did the “IR/IGF-1R Comparison” value turn out when IQQELTFYDLLHRLVRSELGS [20E2B-3-D2-IGFR] was run?
A: 0.1 ratio

Q: For PGTDLGFYQALRCVVIQGACD (not fully specified (bridges); cysteine pairing not given here) [20E2B-2-22-IGFR], which “IR/IGF-1R Comparison” value is on record?
A: 0.1 ratio

What follows are binders tested against T1, Soluble IGF-1R (R&D Systems, Cat. # …) (assay: phage ELISA vs milk).

Q: DRDFCRFYERLTALVGGQVDGGWPC (disulfide 5-25 (inferred)) [20C-3-F6-IGFR] was tested. Which “Ratio over Background” value did it give?
A: 26.1 fold

Q: With QPDHSYFYSLLQELVGSEERL [20E2B-4-F9-IGFR] as the binder, how does the “Ratio over Background” value read?
A: 14.7 fold

Q: With PDLHKGFYAQLAQLIRGQLLS [20E2H-3-E3-IGFR] as the binder, how does the “Ratio over Background” value read?
A: 16.3 fold

Q: QFYGCLLDLSLGVPSFGWRRRCITA (disulfide 5-22 (inferred)) [20C-3-A4-IGFR] was tested. Which “Ratio over Background” value did it give?
A: 8.8 fold

Q: With LGVTDGFYAALGYLIHGVGQF [20E2B-3-D11-IGFR] as the binder, how does the “Ratio over Background” value read?
A: 12.2 fold

Q: For QPAPDGFYSALMKLIGRGGVS [20E2B-3-C8-IGFR], which “Ratio over Background” value is on record?
A: 15.6 fold

Q: VATSQGFYSGLSELLQGGGNV [20E2H-3-E12-IGFR] was tested. Which “Ratio over Background” value did it give?
A: 6 fold

Q: RQGTGSFYLMLEQLLVGARGP [20E2B-4-G11-IGFR] was tested. Which “Ratio over Background” value did it give?
A: 4.5 fold

Q: VEGRGLFYDLLRQLLARRQNG [20E2B-3-C6-IGFR] was tested. Which “Ratio over Background” value did it give?
A: 16.8 fold

Q: How did the “Ratio over Background” value turn out when FFYRCLSRLLGGQLGSRLGLSCIGD (disulfide 5-22 (inferred)) [20C-3-E4-IGFR] was run?
A: 7.7 fold

Q: Which “Ratio over Background” value does the source give for NSRDGGFYLQLERLLGFPVTG [20E2B-3-D4-IGFR] here?
A: 7.9 fold

Q: For LQPCSGFYECIERLIGVKLSG (disulfide 4-10 (inferred)) [20E2Bβ-4-G7-IR], which “Ratio over Background” value is on record?
A: 25.2 fold

Q: How did the “Ratio over Background” value turn out when RGQSDAFYSGLWALIGLSDG [R20β-4-A6-IR] was run?
A: 25.9 fold

Q: How did the “Ratio over Background” value turn out when LSSDGQFYRALNLLLQGSAGR [20E2B-2-B7-IGFR] was run?
A: 6.1 fold

Q: Which “Ratio over Background” value does the source give for KLHNLMFYYGLQRLVWGAGLG [20E2B-4-H3-IGFR] here?
A: 14.8 fold

Q: RGMKEEVLVGGSTDPFYHKLSELLQGS [B6Hα-3-F11-IR] was tested. Which “Ratio over Background” value did it give?
A: 18.7 fold

Q: IQQELTFYDLLHRLVRSELGS [20E2B-3-D2-IGFR] was tested. Which “Ratio over Background” value did it give?
A: 12.4 fold

Q: How did the “Ratio over Background” value turn out when PGTDLGFYQALRCVVIQGACD (not fully specified (bridges); cysteine pairing not given here) [20E2B-2-22-IGFR] was run?
A: 4.9 fold

These binders were tested against T2, Insulin receptor prepared according to … (assay: phage ELISA vs milk).

Q: Which “Ratio over Background” value does the source give for DRDFCRFYERLTALVGGQVDGGWPC (disulfide 5-25 (inferred)) [20C-3-F6-IGFR] here?
A: 1.9 fold

Q: QPDHSYFYSLLQELVGSEERL [20E2B-4-F9-IGFR] was tested. Which “Ratio over Background” value did it give?
A: 1.9 fold

Q: For PDLHKGFYAQLAQLIRGQLLS [20E2H-3-E3-IGFR], which “Ratio over Background” value is on record?
A: 1.3 fold

Q: Which “Ratio over Background” value does the source give for QFYGCLLDLSLGVPSFGWRRRCITA (disulfide 5-22 (inferred)) [20C-3-A4-IGFR] here?
A: 1.2 fold

Q: For LGVTDGFYAALGYLIHGVGQF [20E2B-3-D11-IGFR], which “Ratio over Background” value is on record?
A: 1.6 fold

Q: For QPAPDGFYSALMKLIGRGGVS [20E2B-3-C8-IGFR], which “Ratio over Background” value is on record?
A: 1.8 fold

Q: Which “Ratio over Background” value does the source give for VATSQGFYSGLSELLQGGGNV [20E2H-3-E12-IGFR] here?
A: 0.8 fold

Q: With RQGTGSFYLMLEQLLVGARGP [20E2B-4-G11-IGFR] as the binder, how does the “Ratio over Background” value read?
A: 0.6 fold

Q: VEGRGLFYDLLRQLLARRQNG [20E2B-3-C6-IGFR] was tested. Which “Ratio over Background” value did it give?
A: 1.1 fold

Q: For FFYRCLSRLLGGQLGSRLGLSCIGD (disulfide 5-22 (inferred)) [20C-3-E4-IGFR], which “Ratio over Background” value is on record?
A: 1.3 fold

Q: How did the “Ratio over Background” value turn out when NSRDGGFYLQLERLLGFPVTG [20E2B-3-D4-IGFR] was run?
A: 0.8 fold

Q: For LQPCSGFYECIERLIGVKLSG (disulfide 4-10 (inferred)) [20E2Bβ-4-G7-IR], which “Ratio over Background” value is on record?
A: 1.6 fold

Q: With RGQSDAFYSGLWALIGLSDG [R20β-4-A6-IR] as the binder, how does the “Ratio over Background” value read?
A: 1.5 fold

Q: With LSSDGQFYRALNLLLQGSAGR [20E2B-2-B7-IGFR] as the binder, how does the “Ratio over Background” value read?
A: 0.9 fold

Q: For KLHNLMFYYGLQRLVWGAGLG [20E2B-4-H3-IGFR], which “Ratio over Background” value is on record?
A: 1.1 fold

Q: How did the “Ratio over Background” value turn out when RGMKEEVLVGGSTDPFYHKLSELLQGS [B6Hα-3-F11-IR] was run?
A: 1.6 fold

Q: IQQELTFYDLLHRLVRSELGS [20E2B-3-D2-IGFR] was tested. Which “Ratio over Background” value did it give?
A: 1.2 fold

Q: PGTDLGFYQALRCVVIQGACD (not fully specified (bridges); cysteine pairing not given here) [20E2B-2-22-IGFR] was tested. Which “Ratio over Background” value did it give?
A: 0.6 fold
